What all share (experiment): radiometric HPLC assay of UDP-MurNAc-L-Ala formation
Common to all, as to type: biochemical, Verrucomicrobium spinosum

Substrate in data set [1]: C[C@H](N)C(=O)O
The settings on record: 5 mM ATP, 1 mM UDP-MurNAc, 10 mM MgCl2, 100 mM Tris-HCl pH 9.0, 10 mM ammonium sulfate, 0.5 mg/mL BSA, 37°C, L-Ala 10-400 μM, labelled compound, MurC activity. An excerpt:
(§1) radiometric HPLC assay of UDP-MurNAc-L-Ala formation on MurB/CVs (MurCVs activity)

Substrate in data set [2]: CC(=O)N[C@H]1[C@@H](OP(=O)(O)OP(=O)(O)OC[C@H]2O[C@@H](n3ccc(=O)[nH]c3=O)[C@H](O)[C@@H]2O)O[C@H](CO)[C@@H](O)[C@@H]1O[C@H](C)C(=O)O
The settings on record: 5 mM ATP, 0.2 mM L-Ala, 10 mM MgCl2, 100 mM Tris-HCl pH 9.0, 10 mM ammonium sulfate, 0.5 mg/mL BSA, 37°C, UDP-MurNAc 25-500 μM, labelled compound, MurC activity.
Text: as §1

Substrate in data set [3]: Nc1ncnc2c1ncn2[C@@H]1O[C@H](COP(=O)(O)OP(=O)(O)OP(=O)(O)O)[C@@H](O)[C@H]1O
The settings on record: 1 mM UDP-MurNAc, 0.2 mM L-Ala, 10 mM MgCl2, 100 mM Tris-HCl pH 9.0, 10 mM ammonium sulfate, 0.5 mg/mL BSA, 37°C, ATP 0.2-5 mM, MurC activity.
Text: as §1

B1: MurB/CVs (MurCVs activity) (Verrucomicrobium spinosum) (protein)
chain: MNHAVVSLLKEGRHKMHVHLIGVAGSGMSGLALLLMELGHKVSGSDKVTTLETERMEKKGLIFHCPQSEREVEGADMVIYSSAVKPGNPAYEAAYRHGIPLVRRAEALAAIMARKHGVVVAGTHGKTTTSSMAAHVLRVGGAKPSHYVGAEIPILGSNAHWDDAGELFVAEGDESDGTLVKFEPRHAIILNIEAEHLDYYEDLNEIKLVFRQLLEKTSGYSVYCAEDPVATELCEGRKNGISYGWSRDHNFSANILELRPAQTRYEVFQKGELLGEVLLGIPGRHNVLNSLAAISLAVSVGVPFSSIKQALESFRGARRRFEVKYSGSQYQIIDDYGHHPTEIKATLATAKALNPKRIVCLFQPHRYSRTQLLKQEFGGAFNDVDVLCVTDVYAASEKPLPGVSGETILEEVKLQAPGVECHSTPKLLNARDLIGSKLRPGDLLITLGAGNVHEVGSALARDLKVAEQLTTVLNREGGGTVKLYEPMANHTTIRLGGPAQYWIEPMTIQGFAEVVKALRAALIPIRVIGRGSNLLVRDGGIKGAVLHPSKGEFDEVRVDGNFIFAATGVRLKKIASAARAAGLGGFEWMEGIPGNLGGALRMNAGAMGLQTFDQVVSVRFLDGNGELREKMKHEIDHQYRSVPELDRHFAVSAVLQGRPAEAAEIDEKLAASHQKRRGSQPIGASAGCIFKNPGPVPAGKLVDELGLKGRSFGKAIVSDVHGNFILNSGGGTARDVQDLISDIKQVALQERGIMLETEVQIIGEEEPLPL
As a reminder, the Km is the substrate concentration at which the rate is half of its maximum. A word on the kcat: it is the number of substrate molecules converted per active site and unit of time at saturation. Turning to B1, the Km in data set [1] came out at 25 ± 10 µM; in data set [2] it was 90 ± 25 µM; in data set [3] it was 470 ± 160 µM. In addition, the kcat in data set [1] worked out at 8 s⁻¹.
